According to article doi:10.1101/2020.10.08.20209114 (medRxiv, 2020):

Molecular target: SARS-CoV-2 RBD protein (SARS-CoV-2 (Wuhan-Hu-1, NC_045512), UniProt P0DTC2)
Assay: BLI

Row | Binder | Kd
1 | monoclonal antibody 7F3 (antibody, V domains shown) VH: EVQLVESGGGLVKPGRSLRLSCTASGFTFGDYAMSWFRQAPGKGLEWVGFIRSKAYGGTTEYAASVKGRFTISRDDSKSIAYLQMNSLKTEDTAVYYCTRDRYARYDILTGLSPAGADYFYYAMDVWGQGTTVTVSS VL: EIVLTQSPATLSLSPGERATLSCRASQSVSSYLAWYQQKPGQAPRLLIYDASNRATGIPARFSGSGSGTDFTLTISSLEPEDFAVYYCQQRSNWPQYTFGQGTKLEIK | 0.69 ± 0.03 nM
2 | monoclonal antibody 4L12 (antibody, V domains shown) VH: EVQLVESGGGLVQPGGSLRLSCAASGITVSSNYMNWVRQAPGRGLEWVSLLYSGGSTYYADSVKGRFTISRDNSKNTLYLQMNSLRAEDTAVYYCARDLITYGMDVWGQGTTVTVSS VL: AIQLTQSPSSLSASVGDRVTITCRASQGISSYLAWYQQKPGKAPKLLIYAASTLQSGVPSRFSGSGSGTDFTLTISSLQPEDFATYYCQQLNSYPPLTFGGGTKVEIK | 1.49 ± 0.06 nM
